Assay results reported in the nanobody polyreactivity screen of Harvey et al. (2022).

Test: yeast display, Sf9 membrane polyspecificity reagent, FACS + sequencing; frameworks hold sequencing errors
Procedure, shortened: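 A synthetic nanobody library was expressed on Saccharomyces cerevisiae BJ5465 by galactose induction for 36–48 hours. The library was stained for 1 hour at 4 °C with 10% biotinylated, detergent-solubilized Sf9 membrane reagent and enriched with streptavidin microbeads before FACS. Low and high (top ~1%) gates were set on anti-HA fluorescence for expression and streptavidin fluorescence for reagent binding, and each polyreactivity label reflects the gate of origin.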

Sequence	polyreactivity (PSR sort gate)
QVQLVESGGGLVQAGGSLRLSCAASGYTFWAYTMGWSRQAPGKERELVAAISFSGGSTYYADSVKGRFTISRDNAKNTVYLLMNSLKPEDTAVYYCAADYLIEMDYWGQGTQVTVSS	low polyreactivity
QVQLVESGGGLVQAGGSLRLSCAASGRTFGVYAMGWYRQAPGKERELVADITSGGGTYYADSVKGRFTILRDNAKNTVYLQMNSLKPEDTAVYYCAARKWYYAYDYWGQGTQVTVSS	high polyreactivity
QDQLVESGGGLVQAGGSLRLSCAASGLIFYDNLGWYRQAPGKERELVAAISSSGGSTSYADSVKGRFTISRDNAKNTVYLQMNSLKPEDTAVYYCAADSYPAYLGFVGFDYWGQGTQVTVSS	low polyreactivity
QVQLVESGGGLVQAGGSLRLSCAASGFIFSSYAMGWYRQAPGKERELVAAINSSGGRTYYADSVKGRFTISRDNAKNTVYLQMNSLKPEDTAVYYCAAVVWSYYVGDDYWGQGTQVTVSS	high polyreactivity
QVQLVESGGGLVQAGGSLRLSCAASGRIFVPNAMGWYRQAPGKERELVAAITRSGSTYYADSVKGRFTISRDNAKNTVYLQMNSLKPEDTAVYYCAADYYYPSQMDSWGQGTQVTVSS	low polyreactivity
QVQLVESGGGLVQPGGSLRLSCAASGFTFYTYAMGWYRQAPGKERELVATISSGGRTNYADSVKGRFTISRDNAKNTVYLQKNSLKPEDTAVYYCNIRLRGGAVRFDSWGQGTQVTVSS	low polyreactivity
QVQIVESGGGLVQAGRSLRLSCAASGIIFRRYAMGWYRQAPGKETELVAAISSRGGSTYYADSVKGRFTISRDNAKNTVYLQMNSLKPEDTAVYYCAKGFSGTGGSGDFGYWGQGTQVTVSS	high polyreactivity
QVQLVESCGGLVQAGGSLRLSCDASVSIFYRNAMGWYRQAPGKERELVAAIRSGGSTNYADSVKGRFTISRDNAKNTVYLQMNSLKPEDTAVYYCAAGYFWRQYKMGYWGQGTQVTVSS	high polyreactivity
QVQLVESGGGLVQAGGSLRLSCAASGSIFGDYAMSWYRQAPGKERELVATITWIGGSTYYADSVKGRFTISRDNAKNTVYLQMNSLKPADTAVYYCAIYMGSYRLDYWGQGPQVTVSS	low polyreactivity
QVQLVESGGGLVQAGGSLRLSCAASGIIFDYNAMGWYRQAPGKERELVAAITSTDNTNYADSVKGRFTISRDNAKNTVYLQMNSLKPEDTAVYYCNTDYWLSVVYAMDYWGQGTQVTVSS	low polyreactivity
QVQLVESGGGLVQAGGSLRLSCAASGSIFDYYALGWYRQAPGKERELVATITSGVSTYYADSVKGRFTISRDNAKNTVYLQMNSLKPEDTAVYYCARDYAKSQDLYKYDYWGQGTQVTLSS	low polyreactivity
QVQHVESGGGLVQAGGSLRLSCAASGSIFSIYAMGWYRQAPGKEREFVASITVTDGSTYYADSVKGRFTISRDNAKNTVYLQMNSLKPEDTAVYYCFAVDWYGSGSSYRGSVTYWGQGTQVTVSS	low polyreactivity
QVQLVESGGGLVQAGGSLRLSCAASGFTFVRYAMGWYRQAPGKERELVAAISSGGRTYYADSVKGRFTISRDNAKNTVYLQMNSLKPEDTAVYYCAAEKVGTRPSRDYDYWGQGTQVTVSS	high polyreactivity
QVQLVESGGGLVQAGGSLRLICAASGFIYFFYAMGWSRQAPGKEMEFVAVITQSGGSTYYADSVKGRFTISRDNAKNTVYLQMNSLKPEDTAVYYFNADTVRYYPFFSVRYYYWGQGTQVTVSS	low polyreactivity
QVQLVESGGGLVQAGGSLRLSCAASGSTFPVNAMGWYRQAPGKERELVAAITYRDGDTYYADSVKGRFTISRDNAKNTVYLEMHSLKPEDTAVYYCNADVGRHGKNRHMDYWGQGTQVTVSS	low polyreactivity
QVQLVESGGGLVQAGGSLRLSCAASGNISYTYVMGWSRQAPGKHRELVAAITWSTGSTYYADSVKGRFTISRDNAKNTVYLQMNSLKPEDTAVYYCAVDGGEFSSYGYWGQGTQVTVSS	low polyreactivity
QVQLVESGGGLVQAGGSLRLSCAASGRTFYYYAMGWYRQAPCKERELVSAITTDGGNTYYADSVKGRFTISRDNAKNTVYLQMNSLKPEDTAVYYCATDGYEYTDYGSSGYDYWGQGTQVTVSS	low polyreactivity
QVQLVESGGGLVQAGGSLRLSCAASGGMGWYRQAPGKERELVATISSVGSTNYADSVKGRFTISRDNAKNTVYLQMNSLKPEDTAVYYCIATGVQYFLYGYWGQGTQVTVSS	low polyreactivity
QVQLVESGGGLVQAGGSLRLSCAASGSILYRYTMGWYRQAPGIERELVAAITKRGGRTYYADSVKGRFTISRDNAKNTVYLQTNSLKPEDTAVYYCAAKYYTGGSFEMYYWGQGTQVTVSS	high polyreactivity
QVQLVESGGGLDQAGGSLRLSCAASGFTFPWYPMGWYRQAPGKEREMVAAISTGGSTDYADSVKGRFTISRDNAKNTVYLKMNILKPEDTAVYYCNAGYWVRKYYHGGYWGQGTQVTLSS	high polyreactivity
QVQLVESWGALVQAGGSLRLSCAASRRTFALNAMGWYRQAPGKETELVAAITSSGGSSYYADSVKGRFTISRDIAKNSVYLLMNSLNPVDTAVYYCAADRHYGTEYAYDYWGEGTQVTVSS	low polyreactivity
QVQLVESGGGLVQAGGSLRLSCAASGSTFNYYAMGWYRPAPGKERELVAAISWSGGSTYYADSVKGRFTISRDNAKNTVYLQMNSLKPEDTAVYYCAAYPARPWARGDRRRIRFWGQGTQVTVSS	high polyreactivity

Sequence	polyreactivity (PSR sort gate)
QVQRVESGGGLVQAGGSLRLSCAASGFTFSLYGMGWYRPARGKGRELVAAIRSGGSTNYADSVKGRYTISRDNAKNTVYLQMNSLKPEDTAVYYCATDIHSGHNNRDKHDYDYWGQGTQETVSS	low polyreactivity
QVQLVESGGGLVQAGGSLRLSCAASGRIFGRYAMGWYRQAPGKERELVASIRSRGGSTYYADSVKGRFTISRDNAKNTVYLQMNSLIPEDTAVYYCAKTVTSGYYYAGRYDYWGQGTQVTVSS	high polyreactivity
QVQLVESGGVLVQAGGSLRLSCAASGSTFLGYAMGWYRQAPGKERELVAAISSGGSTNYADSVKGRFTLSRDNAKNTVYLQMNSLKPDDTAVYYCGARTRRFRYYYWGQGPQVTVSS	high polyreactivity
QVQLVESGGGLVQAGGSLRLSCAASGSIFYRYAMGWYRQAPGKERELVAAISSTGSTYYADSVKGRFTISRDNAKNTVYLQMNSLKPEDTAVYYCAARQGYRSYRRYDYWGQGTQVTVSS	high polyreactivity
QVQLVESGGGLVQAGGSLRLSCAASGITFVLYAMGWYRQAPGKERELVAANSSSGGRTYYADSVKGRFTISRDYAKNTVYLQMNSLKPEDTAVYYCAKDTYGFAANRPAGDGYWGQGTQVTVSS	high polyreactivity
QVQLVESGGGLVQAGGSLRLSCAASGITFPRYAMGWYRQAPGKERELVAAISKSGGRTYYADSVKGRFTISRDNAKNTVYLQMISLKPEDTAVYYCAADPLLGYLSHYYWGQGTQVTVSS	high polyreactivity
QVQLVESGGGLVQAGGSLRLSCAASGSIFSYYAMGCYRQAPGKERQLVASISWIGTSTYYADSVKGRFTISRDNAKNTFYLQINSLKPEDTAVYYCNADWTYYGFGTRLDYWGQGTQVTVSS	low polyreactivity
QDQLVESGGGLVQAGGSLRLSCAASGSICSEYAMGWYRQAPGKERELVAAISRSGGTTYYADSVKGRFTISRDNAKNTVFLQMNSLKPEDTAVYYCAARYFRGSYPMGYWGQGTQVTVSS	high polyreactivity
QVQLVQSGGGLVQAGGSLRLSCAASGSIFGYYAKGWNRQAPGKERQLVAAIDSRGGSTYYADSVKGRFTISRDNEKNTVYLQMNSLKTEDTAVYYCAARLRYPRRGQGDNYRGQGTQVTVSS	low polyreactivity
QVQLVESGGGLVQAGGSLRLSCAASGRIFSYYAMGWYRQAPGKERELVAAISSSGGSTYYADSVKGRFTISRDNAKNTVYLQMNSLKPEDTAVYYCAKLQYGFGRYGYWGQGTQVTVSS	high polyreactivity
QVQLVESGGGLVQAGGSLRLSCAASGRIITKYTMGWYRQAPGKERELFAAISRSDRTNYADSVKGRFTISRDNAKNTVYLQMNSLKPEDTAVYYCNARHSYWTGRRVTDDYDYRGQGTQVTVSS	high polyreactivity
QVQLVESGGGLVQAGGSLRLSCAASGSTFDDYAMGWYRQAPGKERELVAAIYWSSGRTYYADSVKGRFTISRDNAKNTVYLQMNSLKPEDTAVYYCAARNRYDRLRYYYWGQGTQVTVSS	high polyreactivity
QVQIVESGGGLVQAGGSLRLSCAASGLTFRSYTIGWYRHAPGKERELVAAISSGGSTYYADSVKGRFTISRDNAKNTVYLQMNSRKPEDTAVYFCAAPRGHGKYYSWGQGTQVTVSS	high polyreactivity
QVQLVESGGGLVQAGGSLRLSCAASGSIFFDYAMGGYRQAPGKERELVAAINSGGTTNYADSVKGRFTISRDNAKNTVYLQMKQPETGRYRGLLLQRFPGYLRWYRWFDYWGQGTQVTVSS	low polyreactivity
QVQLVESGGRLVQAGGSLRLSCAASGSIFQYYARGWYRQAPGKVREFVSAITSDGSSTYYADSVKGRFTISRDNAKNTVYLQMKSLKPEDTAVYYCAAGWVGYRRPSMYYWGQVTQVTVSS	high polyreactivity
QVQLVESGGGLVQAGGSLRLSCAASGSTFDPNAMGWYRHAPGKERELVAAIDSGGSSYYADSVKGRFTISRDNAKYTVYLQMNSLKPEDTAVYYCASNIVGRSPYDSNYDFEYWGQGTQVTVSS	low polyreactivity
QVQLVESGGGLVQAGGSLRLSCAASGLISTYYVMGWYRQAPGQERELVAAIRASDASTYYADSVKGRFTISRDNAKNPVYLQMHSLKPEDTAVYYCAAETGFYSRFAFHRYNYWGQGTQVTVSS	low polyreactivity
QVQLVESGGGLVQAGGSLRLSCAASGRTFTVYAMGWYRQAPGKERELVATISGSTGSTYYADSVKGRFTISRDNAKNTVYLQMNSLKPEDTAVYYCAARVRYRYLIGSGFDYWGQGTQVTVSS	low polyreactivity
QVQLVESGGGLVQAGGSLRLSCAASGYNFPLYSMGWYTQAPGKERELVADINIGGASTYYADSVKGRFTISRDNAKNTVYLQMNSLKPEDTAVYDCAKEYFDGYFPTFDYDYWGKGTQVTVSS	low polyreactivity
QDQLVESGGGLVQAGGSLRLSCAASGITFNRYAMGWYRQAPGKERELVAAISRTGGSTYYADSVKARFTISRDNAKNTVYLQMNSLKPEDTAVYYCASRYTKGMYYWGQVTQVTVSS	high polyreactivity
QVQLVESGGGLVQAGGSLRLSCAASGRIFTYYAMGWYRQAPGKERELVATICSSGSTNYADSVKGRFTISRDNAKNTVYLQMNSLKPEDTAVYYCAKKTRRRYDVKYDYWGQGTQVTVSS	low polyreactivity
